# Measurements taken from patent EP3199551.
# Like-named read-outs stand apart in the source and are kept apart here.
# Experiments:
# human BTLA [1] = biological target: T1, human BTLA (human, UniProt Q7Z6A9); experiment: SPR
# human BTLA [2] = biological target: T1, human BTLA; experiment: SPR; remark: listed apart in the source
# human BTLA [3] = biological target: T1, human BTLA; experiment: FACS, 4C
# T1 sequence (Q7Z6A9 31-157): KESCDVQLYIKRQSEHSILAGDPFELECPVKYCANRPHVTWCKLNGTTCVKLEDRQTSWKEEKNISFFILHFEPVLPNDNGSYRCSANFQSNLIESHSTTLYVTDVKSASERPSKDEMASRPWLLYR
Binder,Kd (human BTLA [1]) [nM],Kd (human BTLA [2]) [nM],EC50 (human BTLA [3]) [nM]
"hu Mab8D5 (IgG4 S228P) (antibody, V domains shown) VH: EVQLVESGGGLVQPGGSLRLSCAASGFTISSYDMHWVRQATGKGLEWVSVIGPAGDTYYPGSVKGRFTISRENAKNSLYLQMNSLRAGDTAVYYCAREGMAAHNYYGMDVWGQGTTVTVSS VL: not shown",2.99,2.4,~12
"hu Mab8D5 G1 (IgG1) (antibody, V domains shown) VH: EVQLVESGGGLVQPGGSLRLSCAASGFTISSYDMHWVRQATGKGLEWVSVIGPAGDTYYPGSVKGRFTISRENAKNSLYLQMNSLRAGDTAVYYCAREGMAAHNYYGMDVWGQGTTVTVSS VL: not shown",,,~12
